The experiment addresses DSS1 (human). Kind of experiment: MST; labelled DSS1 50 nM constant, RAD52 1 nM to 36 uM, 30 mM Tris-acetate pH 7.5, 1 mM DTT, 25°C, quadratic binding equation.

B1: RAD52 (natural protein)
chain: MSGTEEAILGGRDSHPAAGGGSVLCFGQCQYTAEEYQAIQKALRQRLGPEYISSRMAGGGQKVCYIEGHRVINLANEMFGYNGWAHSITQQNVDFVDLNNGKFYVGVCAFVRVQLKDGSYHEDVGYGVSEGLKSKALSLEKARKEAVTDGLKRALRSFGNALGNCILDKDYLRSLNKLPRQLPLEVDLTKAKRQDLEPSVEEARYNSCRPNMALGHPQLQQVTSPSRPSHAVIPADQDCSSRSLSSSAVESEATHQRKLRQKQLQQQFRERMEKQQVRVSTPSAEKSEAAPPAPPVTHSTPVTVSEPLLEKDFLAGVTQELIKTLEDNSEKWAVTPDAGDGVVKPSSRADPAQTSDTLALNNQMVTQNRTPHSVCHQKPQAKSGSWDLQTYSADQRTTGNWESHRKSQDMKKRKYDPS
By Kd is commonly meant the free concentration of one partner at which half of the binding sites on the other are occupied at equilibrium, for simple one-to-one binding. Read a low Kd as tighter binding. For B1, the Kd was 14 nM.
